To fix the notation:
B1: HDV Ribozyme (parent)
chain: GGCCGGCAUGGUCCCAGCCUCCUCGCUGGCGCCGGCUGGGCAACAUUCCGAGGGGACCGUCCCCUCGGUAAUGGCGAAUGGGACCCA

The variants in the data set derive from B1. As to the kind of experiment: self-cleavage, relative activity (ratio to wild type); higher = more cleavage; co-transcriptional.
Turning to G28U A51U, the self-cleavage was determined as 0.166.
With G29C G74C the figure was 0.032; with G28A C49G, 0.
With G29C A43C the figure was 0.0489; with G28A U79A, 0; with U27C U69A, 0.317.
With G29C U47G the figure was 0; with G29C U47A, 0.214.
G29C U47C: the self-cleavage came out at 0.0554.
With G29A G53A the figure was 0.217.
Consider G29A G53C, for which the self-cleavage turned out to be 0.134.
With G28A G38A the figure was 0.0647.
As to U27G G53C, the self-cleavage was 1.01.
For the variant U27G G53A, the self-cleavage is 0.923.
With G28U G31A, the self-cleavage came to 0.0554.
For the variant G28C G34A, the self-cleavage was 0.146.
For the variant G28U C62G, the self-cleavage is 0.0415.
With G28U G73U the figure was 0.169; with G28U C32U, 0.041; with U27C, 0.8.
As to U27G, the self-cleavage worked out at 0.848.
G29C A83G: the self-cleavage came out at 0.0863.
For the variant G29C A83U, the self-cleavage was 0.0462.
With G28A A77C the figure was 0.119; with G29A C85G, 0.119.
The value for U27G C41A was 0.969; that for U27G C41G was 0.802.
With G29C U72C the figure was 0.
As for G28A C33U, the self-cleavage came out at 0.0234.
On to G28A C33G, for which the self-cleavage is 0.149.
The value for U27C C75G was 0; that for G29A U79G was 0.154; that for U27G G55A was 0.806.
For G28A G59A, the self-cleavage turned out to be 0.0573.
The value for G28A G67A was 0.0936.
Regarding U27C G52C, the self-cleavage stood at 0.764.
With G29C C57U the figure was 0.0604; with G28A G82C, 0.0959; with G28C G50U, 0.0519.
Regarding G29C G31C, the self-cleavage came to 0.
As to G28C C33G, the self-cleavage was 0.0519.
The value for U27C C36A was 0.142; that for U27G C64U was 0.72; that for G29A G81C was 0.0314.
With G29A G81A the figure was 0.138.
Turning to U27G G52U, the self-cleavage came to 0.872.
On to U27G G52A, for which the self-cleavage is 1.02.
The value for G29C G52A was 0.0615; that for G28C G74A was 0.108.
The value for U27C G39C was 0.166; that for G28C G52A was 0.119.
Turning to G28U U69G, the self-cleavage worked out at 0.208.
Turning to G28C A77G, the self-cleavage is 0.119.
With G28A U72C the figure was 0.101; with G28A U72A, 0.119; with U27G G39U, 0.222.
The value for U27G A77G was 0.723; that for G29A C49U was 0.237; that for U27G A70U was 0.519.
Turning to G29A G54U, the self-cleavage was 0.119.
Take G28A G39U: the self-cleavage came to 0.0692.
As to G29A U69C, the self-cleavage was determined as 0.131.
For U27G G74U, the self-cleavage amounted to 0.151.
Regarding U27C U37G, the self-cleavage is 0.0923.
As for U27C U37C, the self-cleavage is 0.856.
As to U27G G68C, the self-cleavage was 0.87.
With G28C G29C the figure was 0.0504; with U27C G80A, 0.237.
The value for G29C G59U was 0.163; that for G29C G59A was 0.0332; that for G29A A83C was 0.148.
The value for G29C G81C was 0.18; that for G29A G52C was 0.197; that for G29A G52U was 0.153.
Take G29A C41A: the self-cleavage stood at 0.0405.
As to G29A C41U, the self-cleavage is 0.25.
With G29A C44U the figure was 0.151.
G29C U69G: the self-cleavage was determined as 0.0504.
For G29C U69C, the self-cleavage amounted to 0.
As for G28C C30U, the self-cleavage stood at 0.0791.
In the case of G28A C32U, the self-cleavage turned out to be 0.0845.
For G28C C58G, the self-cleavage was 0.0475.
For the variant G28C C58A, the self-cleavage is 0.166.
With G28C G81A, the self-cleavage worked out at 0.104.
The value for U27G A43U was 0.415; that for G29A C64A was 0.22.
For G29A C64G, the self-cleavage is 0.202.
For U27G A42U, the self-cleavage is 0.229.
On to U27G A42C, for which the self-cleavage is 0.185.
The value for U27C A51U was 0.804; that for G28A C86U was 0.0369; that for G28U G29A was 0.0755.
With G28C U65A the figure was 0.104; with G28C U65G, 0.0665.
Take G28U A42G: the self-cleavage stood at 0.0426.
The value for G28C G82C was 0.0475; that for G28U C57G was 0.0773; that for G29C A78C was 0.0519.
With G29C G76A the figure was 0.0545; with G29C A51C, 0.231.
With G28C G31C the figure was 0.
G28C G31A: the self-cleavage stood at 0.0739.
In the case of G28A C44G, the self-cleavage turned out to be 0.
The value for G28A C44A was 0.104.
The value for U27G A51U was 0.677.
The value for U27G G29C was 0.733; that for U27G G29U was 0.739.
Turning to G29C G39U, the self-cleavage is 0.0992.
The value for G29A C58A was 0.318.
In the case of G28U G68U, the self-cleavage was determined as 0.0386.
For the variant G28U G68A, the self-cleavage stood at 0.182.
The value for G29C G50C was 0.
The value for G29C G50A was 0.0277; that for G28C U37C was 0.101.
With G29C G54C the figure was 0.0692; with U27C G38C, 0.123.
Consider G28A U46G, for which the self-cleavage turned out to be 0.0665.
Consider U27G G81U, for which the self-cleavage came to 0.643.
With G28C G68A the figure was 0.0475; with G29C G67A, 0.0739; with G29C G67U, 0.0773.
Consider G29C C64U, for which the self-cleavage worked out at 0.0594.
With G28C G38A the figure was 0.0415; with G29A A78U, 0.143.
For the variant U27C G81U, the self-cleavage amounted to 0.475.
The value for U27C G81A was 0.374; that for G28C U46A was 0.107.
The value for U27C C61U was 0.978.
The value for U27C C61A was 0.898; that for U27G U60G was 0.978; that for G28C C41A was 0.0573.
Consider G28A G76C, for which the self-cleavage came out at 0.156.
With U27G G73C the figure was 0.0978.
With G29C C44G the figure was 0; with G29C G38U, 0.0627; with G28C C66U, 0.
In the case of G28C C66A, the self-cleavage worked out at 0.122.
As for G29C U37A, the self-cleavage was determined as 0.201.
With G29C U37G the figure was 0.128; with G29C U37C, 0.0898.
The value for G28C A45U was 0.142.
The value for U27C A78C was 0.0594; that for G28A G40C was 0.0702; that for G28A G40U was 0.0256.
Take G28U G50A: the self-cleavage was 0.0791.
The value for G28U C86U was 0.0594.
Consider G28U C86A, for which the self-cleavage turned out to be 0.
Regarding G29A A42G, the self-cleavage worked out at 0.0415.
Turning to G29A A42U, the self-cleavage was found to be 0.222.
The value for G28C U72A was 0.151; that for G28U U37A was 0.0773.
In the case of G28U A77G, the self-cleavage was 0.111.
Regarding G29A G34A, the self-cleavage is 0.131.
For G29A G34C, the self-cleavage turned out to be 0.148.
As for G28A C85U, the self-cleavage was found to be 0.106.
For the variant G28C C86U, the self-cleavage was 0.
As for U27C C49U, the self-cleavage was found to be 0.617.
Consider G29A C66A, for which the self-cleavage stood at 0.191.
The value for G29C U79C was 0.138; that for G28C G76U was 0.0378.
On to U27G A56G, for which the self-cleavage was determined as 1.06.
U27C G40C: the self-cleavage worked out at 0.415.
The value for U27C G40A was 0.657.
The value for G28A C75A was 0.121; that for G28A U37G was 0; that for G28C C48G was 0.138.
With G28C C36U the figure was 0.145.

Values taken from the RNAGym collection of RNA variant scans (doi:10.7554/elife.80360).
